Experimental data from PMC11297306 (Nature Communications, 2024).

Target: EEEV virus-like particles (strain PE6) (eastern equine encephalitis virus, strain PE6)
Test: BLI

Row | Substance | Kd [µM]
1 | VLDLRLA1-Fc fusion protein (from UniProt P98155-1 31-69) | 15.5
2 | VLDLRLBD-Fc fusion protein (from UniProt P98155-1 31-355) | 0.0021
